B1: FXR1 proximal 3' splice site (ssRNA)
RNA: UUUUUCUCAUCUUUAACAGUCACAGUUGCAGAU
B2: FMR1 proximal 3' splice site (ssRNA)
RNA: GUAUAUAACUUUUAACUCUCGAUAGGAACUAAUUC
B3: MED15 proximal 3' splice site (ssRNA)
RNA: GUCUGUUGUCCCUCUGUCCUCAAAGAUGAUCAC
B4: CEP164 distal 3' splice site (ssRNA)
RNA: CACUUGUCAUCAUUUUUGUUUCUAGAGUGUCCACA
B5: ATR distal 3' splice site (ssRNA)
RNA: UUGGUUUUAUGUUUCUUCUUUUUAGGCCAAGAC
B6: ZFAND1 proximal 3' splice site (ssRNA)
RNA: UAAACACUUGCUAUUAUUAUUUAAGCCUUGAAC
B7: FXR1 distal 3' splice site (ssRNA)
RNA: UGAAAAAGUUGUCUCCCUUUGGCAGGCAAAAGA
B8: MED15 distal 3' splice site (ssRNA)
RNA: GCCGGCUGAGCCCCUCCACUUCCAGGUCAGCCA
B9: ZFAND1 distal 3' splice site (ssRNA)
RNA: CAUUUCCUCCUUUUUGCAUUUUCAGGUGACUGU
B10: FMR1 distal 3' splice site (ssRNA)
RNA: GAAGCAUCAAAUGCUUCUGAAACAGAAUCUGACCA
B11: CEP164 proximal 3' splice site (ssRNA)
RNA: UUGACUGUCCUUCUCUAUUUUGAAGCCUUCACAGG
B12: ATR proximal 3' splice site (ssRNA)
RNA: UCUUCCAUAUCCACCUUUUCCUAAGAUGGCAAG

The binders below were run against U2AF1 S34F;U2AF2;SF1 (Homo sapiens?;Homo sapiens?;Homo …, UniProt Q01081;P26368-2;Q15637 1-193;85-471;1-255, S34F||) (assay: fluorescence anisotropy; 20 nM 5'-fluorescein RNA, size-exclusion chromatography buffer (composition, pH and temperature not in the material), 384-well plate, 3 replicates). Conditions: protein: recombinant;recombinant;recombinant; tags: ;;; copies: 1;1;1; label: 5' fluorescein.
Sequence of U2AF1 S34F;U2AF2;SF1 (Q01081 1-193 S34F, chain 1 of 3): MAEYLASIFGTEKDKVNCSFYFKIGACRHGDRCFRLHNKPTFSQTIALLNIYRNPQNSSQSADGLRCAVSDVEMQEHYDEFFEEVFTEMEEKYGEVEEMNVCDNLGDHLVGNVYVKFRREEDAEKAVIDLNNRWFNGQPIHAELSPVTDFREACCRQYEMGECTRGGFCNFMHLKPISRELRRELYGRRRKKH
Sequence of U2AF1 S34F;U2AF2;SF1 (P26368 other isoform, or with tags, fused parts or gaps S34F|| | S34F S34F, chain 2 of 3): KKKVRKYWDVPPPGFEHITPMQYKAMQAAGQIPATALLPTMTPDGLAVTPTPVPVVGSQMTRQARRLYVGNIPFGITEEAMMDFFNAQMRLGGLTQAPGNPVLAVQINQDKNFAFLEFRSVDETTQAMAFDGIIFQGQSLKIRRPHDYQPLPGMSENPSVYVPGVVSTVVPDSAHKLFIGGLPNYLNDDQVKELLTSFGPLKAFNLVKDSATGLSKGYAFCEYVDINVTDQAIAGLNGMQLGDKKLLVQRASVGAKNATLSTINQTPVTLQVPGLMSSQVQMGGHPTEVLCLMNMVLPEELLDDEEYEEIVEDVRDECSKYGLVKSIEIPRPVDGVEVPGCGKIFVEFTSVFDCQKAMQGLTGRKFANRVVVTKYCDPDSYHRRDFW
Sequence of U2AF1 S34F;U2AF2;SF1 (Q15637 1-255, chain 3 of 3): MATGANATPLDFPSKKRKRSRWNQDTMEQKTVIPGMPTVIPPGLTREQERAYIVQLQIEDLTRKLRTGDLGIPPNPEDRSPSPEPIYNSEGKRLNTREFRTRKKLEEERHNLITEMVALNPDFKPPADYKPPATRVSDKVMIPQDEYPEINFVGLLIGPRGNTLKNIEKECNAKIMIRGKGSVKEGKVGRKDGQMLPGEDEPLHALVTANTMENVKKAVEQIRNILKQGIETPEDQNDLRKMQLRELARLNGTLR
For B1, the Kd was 38 ± 6 nM. Work on B2 yielded a Kd of 281 ± 44 nM. B3 gave a Kd of 483 ± 106 nM. Work on B4 yielded a Kd of 447 ± 63 nM. B5 was tested, and the Kd was 49 ± 6 nM. B6 gave a Kd of 5 ± 1 nM. Work on B7 yielded a Kd of 46 ± 11 nM. For B8, the Kd was 32 ± 8 nM. In the case of B9, the Kd is reported as 43 ± 7 nM. B10 showed a Kd of 444 ± 58 nM. B11 gave a Kd of 49 ± 9 nM.

What follows are binders tested against U2AF1 WT;U2AF2;SF1 (Homo sapiens?;Homo sapiens?;Homo …, UniProt Q01081;P26368-2;Q15637 1-193;85-471;1-255, ||) in the same assay as above. Conditions: protein: recombinant;recombinant;recombinant; tags: ;;; copies: 1;1;1; label: 5' fluorescein.
Sequence of U2AF1 WT;U2AF2;SF1 (Q01081 1-193, chain 1 of 3): as the sequence (Q01081 1-193 S34F, chain 1 of 3) above, with F34S counted along it
Sequence of U2AF1 WT;U2AF2;SF1 (P26368 other isoform, or with tags, fused parts or gaps ||, chain 2 of 3): as the sequence (P26368 other isoform, or with tags, fused parts or gaps S34F|| | S34F S34F, chain 2 of 3) above
Sequence of U2AF1 WT;U2AF2;SF1 (Q15637 1-255, chain 3 of 3): as the sequence (Q15637 1-255, chain 3 of 3) above
For B1, the Kd was 71 ± 6 nM. Work on B2 yielded a Kd of 188 ± 27 nM. Binder B3 has a Kd of 208 ± 35 nM. B4 was tested, and the Kd was 497 ± 46 nM. For B5, the Kd was 7 ± 0.5 nM. In the case of B12, the Kd is reported as 188 ± 52 nM. B6 showed a Kd of 24 ± 1 nM. B7 showed a Kd of 41 ± 6 nM. With B8 the Kd was 157 ± 25 nM. Binder B9 has a Kd of 53 ± 4 nM. Binder B10 has a Kd of 427 ± 20 nM. For B11, the Kd was 12 ± 1 nM.

Reference: paper PMC5077151, “Wild-Type U2AF1 Antagonizes the Splicing Program Characteristic of U2AF1-Mutant Tumors and Is Required for Cell Survival”
